{"source": "the DeepSol protein solubility set", "data": [{"test": "soluble on expression in E. coli; label from the status in PepcDB or PDB records", "values": [{"sequence": "MSLQTWIWYPGDYEIWLGNRMNNRRTERGAFFPPFWKTDSHYVVVEFSKKLDLAEPEEIFIAAEGKYNVKLDGKLQFGMPSTLKLPAGKHSLNIKVWNQSTPPTIYVKGKTVNTDKTWKVTYEDKEWIDESGKASDTSATVYMDAGCWNFDGATQLPSKFSLARKPMKAVSSTPRKEGVLYDFGKETFGYITLKEVKGKGTIHIYYGESPEEALDTEYCETLDKLLAEPGQITDLAIRNTRKLYDEYTLDNSKAFRYVYVTCDPGVTIQDVSMQYEYLPEEYRGSFKCNDEELNRIWEVGAYTMHLTTREFFIDGIKRDRWVWSGDAIQSYLMNYYLFFDNETVKRTIWLLRGKDPVTSHSNTIMDYTFYWFLSIYDYYMYSGDKDFVTQLYPRMQSMMDYVLGRTNANGMVEGMTGDWVFVDWADGYLDKKGELSFEQVLFCKSLETMALCAGLAGNTADKTKYEKLASALRSKLEPAFWNEQKQAMVHNRVQGKQSESVTRYANMFSVFFNYLNADKQQTIKHSVLQNDSILKITTPYMRFYELEALCALGEQESVMKEMKAYWGGMLKEGATSFWEKYNPEETGTRHLAMYGRPYGKSLCHAWGASPIYLLGKYYLGVKPTKPGYEEYSVTPCLGGLKWMEGTVPTPYGNIHIYMDKKEIRIKSDGGKGVLNIPTRKGMKAMTIEPGEEQVFKYEGHHHHHH", "soluble on expression in E. coli": "soluble"}, {"sequence": "MSLQVEGLSINLATIREQCGFAEAVDVCLKHGITAIAPWRDQVAAIGLEEASRIVRSNGLKLTGLCRGGFFPAPDAAGREKAIDDNKRAVDEAAELGADCLVLVVGGLPGGSKNIDAARSMVLEGIAAVLPHARAAGVPLAIEPLHPMYAADRACVNTLGQALDICEALGPGVGAAIDVYHVWWDPDLNEQIARAGRMKAILAHHICDWLVPTKDMLTDRGMMGDGVIDLKAIRREVEAAGFHGAQEVEIFSADNWWKRPAEEVIATCVERYRSCCRDDEGHHHHHH", "soluble on expression in E. coli": "soluble"}, {"sequence": "MSLQVTDVEIAQYYQDNKAQFMTQHLAHIQFANEQDAKVAYEELQKGANFADVAKAKSLDKISGENGGDLGWVNENELPKAFEDAAAALQVGQYSQPINVDGNYHIVLVQERKAQSLENVKAQIADLVRKSLMESRYFSLEKQASDKAFEDSKSLNTAAQAAGVKVQESDYFSRQNVPAGLNFPNVIYTIFESDTTNVGMNSEPINVGDYHTIIVRVLDRKAEGVKSLEEAKIDIETFLKRQKAENALNGKAQQAVKKLSENPESKVDGINFSSEQTFTLSENKDPILTNGIFSIAKPESSKALYQVVHNSNGDVVVVALNKVEQGSLSEKELSQFAMQLLRSHQSELQVQLIQGLRERAKIEVNDSFINQDDEAQEGHHHHHH", "soluble on expression in E. coli": "soluble"}, {"sequence": "MSLQVWTKLFAKSPFKPLIKHAEVVVETVETLEKALEAWAKGDYEKMKELAVEVDRLEDVADRIKMELRESITAKLLMPVQRSDVLEYLHMQDKIADAAEDTAKWLLVRDRGNVPEDIKDIILKMGKESIRAAKLVYEAIKQMDMVVESGFSENEIKKEYDLIRQIEEVENKIDGLDTKLMRLVLNANISWTEGIYLLNIGRTISNISDKAKDAAERIRIMMSKEGHHHHHH", "soluble on expression in E. coli": "soluble"}, {"sequence": "MSLRGIRMKDYDLIVIGTGSGMNYVNSIIDSNPKMKIAVIDKDEPGGICLTRGCIPSKLLLYPAELVRDLETAPLFGIKLEIKDIEFRTIMERMRKRIGEDIEMIRQGLTENDYLDYYPETAEFISPYTLKAGDEILHSEMIFLCTGSKPAVPPVRGLEEAGYLTSDTVLGLNECPKSLAILGGSYIGAEYGHFFSAMGAEVTVIGRNQHFLPQEEPEVSELARIKMSEYMRILTNHEAIEVRKEKGGQKTVIAKDRDSGEETEVTADEILVATGRAPNNDILHPEKAGIKTDPHGWILVNEYLETSQPNIWAFGDANGKYLLKHVGNYESGIVYLNAIMQEKVKVDYHAVPHAVFSYPEIAGVGMSEKEAIEEFGEKRVIIGFKLFEDTAKGSAMETRDYFVKVILDGLEDKILGAHIIGPHASVLIHQIIPLMYTASRSAKPMMQMMDIHPALSEVVKRAFYSRLSPEHYHHVMKHLGLEDEDSVEGHHHHHH", "soluble on expression in E. coli": "soluble"}, {"sequence": "MSLRGQVHSVFVVVPRFNLTTLITMIETMRIGNYLSSERLFSWEVTSFDGLNLGASNGVRVHLDVEPDQTAPADQVFVLASWGGEHYQNKALASWLRKRARQGERICAVELGCYLVARAGLMDGKEATTHWSWINGFQEKFDQISVVEQLFTIDGRILTCAGGMAGVDLMLRLIEQSHGAGFSGEIADQMLHNPIRKGSSSQRRTMGRGTESILPLVRQAMTLIERNIEEPLTVPQIAAALDVSQRQLERQFKKHVGCTVVQFGLLRRLQNARVLLIATELSVREIATASGFNTLSHFSYSFSKFFGRRPSDYREAWPSNEAAPTWPGTLSDFLHAINSGDKREGHHHHHH", "soluble on expression in E. coli": "not soluble"}, {"sequence": "MSLRIALAGAGAFGEKHLDGLKNIDGVEITSIISRTGEQAAAVAAKYGAKHSSTELEDALARDDVDAVILCTPTQMHASQAIACMKAGKHVQVEIPLADSWADSQEVLRVQQETGKVCMVGHTRRFNPSHQFVHNRIKAGEFNVQQMDVQTYFFRRKNINAKGEPRSWTDHLLWHHAAHTVDLFAYQAGRIVKANAVEGPIHPELGIAMDMSIQLKSETGAICTLSLSFNNDGPLGTFFRYIGDTATYIARYDDLVNGKEEPIDVSKVDVSMNGIELQDREFVAAIREGREPNSSVQKVFDCYRVLGELEQQLAKGEGHHHHHH", "soluble on expression in E. coli": "soluble"}, {"sequence": "MSLRIAVDAMGGDHAPKAVIDGVIKGIEAFDDLHITLVGDKTTIESHLTTTSDRITVLHADEVIEPTDEPVRAVRRKKNSSMVLMAQEVAENRADACISAGNTGALMTAGLFIVGRIKGIDRPALAPTLPTVSGDGFLLLDVGANVDAKPEHLVQYAIMGSVYSQQVRGVTSPRVGLLNVGTEDKKGNELTKQTFQILKETANINFIGNVEARDLLDDVADVVVTDGFTGNVTLKTLEGSALSIFKMMRDVMTSTLTSKLAAAVLKPKLKEMKMKMEYSNYGGASLFGLKAPVIKAHGSSDSNAVFRAIRQAREMVSQNVAALIQEEVKEEKTDEEGGSHHHHHH", "soluble on expression in E. coli": "soluble"}, {"sequence": "MSLRIEEIRRYHESLMVELDRIYRIAEAARKKGLDPELSVEIPIAKNMAERVEKLMNLQGLAKRIMELEEGGLSRELICFKVADEIVEGKFGEMPKEEAIDKAVRTAVAIMTEGVVAAPIEGIARVRIDRENFLRVYYAGPIRSAGGTAQVISVLVADYVRRKAEIGRYVPTEEEILRYCEEIPLYKKVANLQYLPSDEEIRLIVSNCPICIDGEPTESAEVSGYRNLPRVETNRVRGGMALVIAEGIALKAPKLKKMVDEVGIEGWEWLDALIKGEGHHHHHH", "soluble on expression in E. coli": "soluble"}, {"sequence": "MSLRIVIAGAGEVGYHLAMSLAPNHDVIIIEKDVSRFERVSELDVVAINGNAANMKVLRDAGVERADVFLAVTGNDEVNLLSGLAAKKVGAKNVIVRVENPEYVDRPIVKEHPLGYDVLICPQLSLAQEAARLIGIPGAIEVVTFSGGKVEMIELQVMEGSKADGKAIADLYLPQNVVIASIYRNGHIEIPRGDTVLRAGDRVAIVSKTEDVEMLKGIFGPPVTRRVTIFGAGTIGSYTAKILAKGMTSVKLIESSMERCEALSGELEGVRIVCGDATDIEFLIEEEIGKSDAVLAATESDEKNLLISLLSKNLGARIAIAKVEKREYVKLFEAVGVDVALNPRSVTYNEVSKLLRTMRIETLAEIEGTAVVEVVVRNTRLVGKALKDLPLPKDAIIGAIVRGNECLIPRGDTTIEYEDRLLVFAKWDEIEKIEEIFREGHHHHHH", "soluble on expression in E. coli": "soluble"}, {"sequence": "MSLRKEPSSQLELFLNILHGFSTTITSETLNKISEKFLDMVNGSINPSLSLKNKITIVFQDCLTNGFQSANLSKLLENLNSIDVVEVLSEFIHCDLKVGAFSVIDLLDTDIFLSVLSMESLKQTLSIMDKFIIDILLVFTIVDINYEVFAEKLSKLITLHFNISLWLQVYQIDKLLAISETFGHVTKYNYGAQLKSYSDITDFTTLMVGFVKNSPTAEPPIFTRAFSDFILNGEDLTCAKQFLHFVAKPYHVSKDPVEELLYALSLFKCNEYDASIEIFLANDFSDELSLPKYLEVTENHVWYNLLHAINTKDKPAYYYELSVLCSKASSYANALKTIKKSISLDGTRADQLIQYLDTLIVFGDYKEVLDVLRLEQKVLDISLREKYYYTLLSDQKYSEMFTATLLQECYNANISNGSILLCVSDYKIIASILSSQVSLTDWNSYKKLFSFRILNQHERKACEELYDYVLFGSNDEVKEKCLLLISNVLKTFSDAKDQWFISYPGQIIHLHELNDKMNKCSKEGHHHHHH", "soluble on expression in E. coli": "not soluble"}, {"sequence": "MSLRKLGPVTIDPRRHDAVLFDTTLDATQELVRQLQEVGVGTGVFGSGLDVPIVAAGRLAVRPGRCVVVSAHSAGVTAARESGFALIIGVDRTGCRDALRRDGADTVVTDLSEVSVRTGDRRMSQLPDALQALGLADGLVARQPAVFFDFDGTLSDIVEDPDAAWLAPGALEALQKLAARCPIAVLSGRDLADVTQRVGLPGIWYAGSHGFELTAPDGTHHQNDAAAAAIPVLKQAAAELRQQLGPFPGVVVEHKRFGVAVHYRNAARDRVGEVAAAVRTAEQRHALRVTTGREVIELRPDVDWDKGKTLLWVLDHLPHSGSAPLVPIYLGDDITDEDAFDVVGPHGVPIVVRHTDDGDRATAALFALDSPARVAEFTDRLARQLREAPEGHHHHHH", "soluble on expression in E. coli": "soluble"}, {"sequence": "MSLRKRLTQLFPFLLPVRRIQRKLCFYTKMYLDRNHYAKAKAPEFLPFCIYETKSKLLNENTGMDIKYQENKVFNLRLAAEPVNGLLIRPGETFSFWQRVRYAEKNERYKDGLCVVNDELVTVPGGGLCHLSNLLFWLFLHTPLTIVERHAHEIKDFPSPDEDEPDGVDATIHEGWLDLKVKNDTNLTFQIELSIDGPYIYGRIFMDQAKGYSYEVVNRDKRFLQKEGKIFERVSVCRQVIDNKSKQVISENMLYTDVFEIGYPLPEGTAIAEEGHHHHHH", "soluble on expression in E. coli": "soluble"}, {"sequence": "MSLRLKIGSPVFFKQVRPGLHGKPFTLYKFRTMTDERDSKGNLLPDEVRLTKTGRLIRKLSIDELPQLLNVLKGDLSLVGPRPLLMDYLPLYTEKQARRHEVKPGITGWAQINGRNAISWEKKFELDVWYVDNWSFFLDLKILCLTVRKVLVSEGIQQTNHVTAERFTGSGDVSSEGHHHHHH", "soluble on expression in E. coli": "not soluble"}, {"sequence": "MSLRLRTLKDLDQAALLLARACALLLDDNTDVPDLRQVIFKCVPKNRLAESVSKVNELARPQNNNFHDEMVEQYGRVKRFLPAVLRDLHFRAAPAGEHVLAAIHYLAELNGSKKRILDDAPEHIITGPWKRLVYDAEGRIQRAGYSLCLLERLQDALRRRDIWLENSDRWGDPREKLLQGEEWQTQRIPVCRALGHPVDGRKGVQQLAIQLDETWKAVASRFEKNAEVHICNEGKYPSLTISCLEKQEEPPSLLRLNNRIKQLLPPVDLTELLLEIDAQTGFTHEFAHVSESGARAQDLHISLCAVLMAEACNIGLEPLIKHNIPALTRHRLSWVKQNYLRAETLVSANARLVDFQSTLELAGRWGGGEVASADGMRFVTPVKTINSGSNRKYFGSGRGITWYNFVSDQYSGFHGIVVPGTLRDSIFVLEGLLEQQTGLNPVEIMTDTAGSSDIIFGLFWLLGYQFSPRLADAGEAVFWRVNKSANYGVLDKLARGYADLSKAESQWDEMMRTAGSLKLGTIHASELIRSLLKSSRPSGLAQAIMEVGRVNKTLYLLNYIDDEDYRRRILTQLNRGEGRHAVARAICYGQRGEIRKRYREGQEDQLGALGLVTNAVVLWNTLYMEEALSWMRRNGEEIIDEDIARLSPLMHGHINMLGHYTFTLPEDILKGELRALNEGHHHHHH", "soluble on expression in E. coli": "not soluble"}, {"sequence": "MSLRNPIRIFIVDDHEIVRQGLKVIINQEQDFELVGESNGQKGLLKEIAEAHPDVLLLDIRISGSDGFDIASQLNEKFPSIKILIISGYESELYLVEALDHKVSGFIPKGSSRDYVCSAIRMVALGGTVWHGELLYRVIRGLSRLGNEPNDTKVQIGKSHLKPRELKVLSLLAKGKLNKEICFELQISMDTVKKDIHQLKSKYGVFNRTQLATIATEMQLKEGHHHHHH", "soluble on expression in E. coli": "not soluble"}]}]}
